The record followed here is patent publication US20250340631A1.

For orientation: pKd means −log10 of the Kd, conventionally taken in molar units. The koff is the rate constant with which the complex falls apart. Read a high koff as a short-lived complex. The term kon denotes a measure of how fast the partners come together. A lower kon goes with slow association.

pKd: −log10 of the molar value.

The target of test [1] is human CLDN18.2 (human). Nature of the test: competition FACS on HEK293/hCLDN18.2 cells; competitor 200 nM biotinylated PR004549; isotype is the reference of the formula.
For test [2], the target named is human CLDN18.2 (human). Nature of the test: competition FACS on HEK293/hCLDN18.2 cells; competitor 10 nM biotinylated PR000400; isotype is the reference of the formula.
Test [3] has as its target Biotinylated murine CD3E&D (murine) (UniProt P22646). Nature of the test: BLI (Octet), biotinylated CD3 on SA sensor, 1:1 global fit.

Biotinylated murine CD3E&D (murine), sequence (P22646 22-108, chain 1 of 2): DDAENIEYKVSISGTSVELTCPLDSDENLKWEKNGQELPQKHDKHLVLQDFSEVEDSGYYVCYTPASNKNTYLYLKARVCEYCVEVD
Biotinylated murine CD3E&D (murine), sequence (P04235 22-105, chain 2 of 2, further chain): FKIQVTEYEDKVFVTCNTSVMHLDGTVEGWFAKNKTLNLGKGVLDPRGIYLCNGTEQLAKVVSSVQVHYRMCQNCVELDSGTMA

With “Iso hIgG1 (CrownBio, C0001-4) (antibody)”, the Maximum inhibition rate (%) with human CLDN18.2 (human) [1] and with human CLDN18.2 (human) [2] was 0% in each case.
Turning to “anti-CD3e 48-2B (santa cruz biotechnology, SC-1174) (antibody)”, in test [3], the pKd is 9.77, the koff was 0.000137 s⁻¹ and the kon worked out at 803000 M⁻¹ s⁻¹.
